In PMC11417369, “DNA sequence and chromatin differentiate sequence-specific transcription factor binding in the human malaria parasite Plasmodium falciparum” one finds binding signal data, which are given here for 41 molecules.

The target in this data set is T1, AP2-HC D1 (Plasmodium falciparum, UniProt Q8IKR9 1316-1374).
T1 sequence: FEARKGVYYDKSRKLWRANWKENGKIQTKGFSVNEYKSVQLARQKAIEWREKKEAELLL
The experiment in a line: gcPBM; about 25 ug protein; PBS, 1% milk, 0.2 mg/ml BSA, salmon testes DNA, 0.03% Triton X-100. Particulars: tags: N-terminal GST (pGEX-4T-1), kept; label: surface-attached array probe.

Changes are numbered by the printed parent chain.

B1: CACACA_site2016 (dsDNA)
DNA 1: CCAACATATATTATCACACACATATATATATATATA
DNA 2: TATATATATATATATGTGTGTGATAATATATGTTGG
On to B1, for which the binding signal is 9.91 ln median PBM intensity, better of two orientations.

B2: CACACA_site7038 (dsDNA)
DNA 1: B1 DNA 1 with C1A, A10G, T27A, T33A
DNA 2: B1 DNA 2 with A4T, A10T, T27C, G36T
In the case of B2, the binding signal is 9.96 ln median PBM intensity, better of two orientations.

B3: CACACA_site1882 (dsDNA)
DNA 1: ATATAGATCTACACTGCACACATTTTTAACACTGCT
DNA 2: AGCAGTGTTAAAAATGTGTGCAGTGTAGATCTATAT
B3: the binding signal was 10 ln median PBM intensity, better of two orientations.

B4: CACACA_site6815 (dsDNA)
DNA 1: TAAGAGTAGTTATATACACACATGTATATTATAGTT
DNA 2: AACTATAATATACATGTGTGTATATAACTACTCTTA
On to B4, for which the binding signal is 9.9 ln median PBM intensity, better of two orientations.

B5: CACACA_site8055 (dsDNA)
DNA 1: ATCTAAATAAAGTTAACACACACATAATATATATAT
DNA 2: ATATATATATTATGTGTGTGTTAACTTTATTTAGAT
On to B5, for which the binding signal was 10.1 ln median PBM intensity, better of two orientations.

B6: CACACA_site9021 (dsDNA)
DNA 1: ATTTCGTAATTTATATCACACACATATATATATAAT
DNA 2: ATTATATATATATGTGTGTGATATAAATTACGAAAT
As to B6, the binding signal is 9.99 ln median PBM intensity, better of two orientations.

B7: CACACA_site1591 (dsDNA)
DNA 1: TTAGCAACTATTACTACACACATTTGTATATAATTT
DNA 2: AAATTATATACAAATGTGTGTAGTAATAGTTGCTAA
Regarding B7, the binding signal was 9.95 ln median PBM intensity, better of two orientations.

B8: CACACA_site2516 (dsDNA)
DNA 1: AAAAAAAATGATAATATACACACTTATGGGAGAGCG
DNA 2: CGCTCTCCCATAAGTGTGTATATTATCATTTTTTTT
B8: the binding signal is 9.94 ln median PBM intensity, better of two orientations.

B9: CACACA_site1704 (dsDNA)
DNA 1: ACCTCATAATATTTAACACACAAAATTATATGTATG
DNA 2: CATACATATAATTTTGTGTGTTAAATATTATGAGGT
For the molecule B9, the binding signal is 9.87 ln median PBM intensity, better of two orientations.

B10: CACACA_negctrl_site143 (dsDNA)
DNA 1: ATAAACAGAAAAAAAAAAAAAAAAAAAAAAAAAAAA
DNA 2: TTTTTTTTTTTTTTTTTTTTTTTTTTTTCTGTTTAT
For B10, the binding signal was 8.89 ln median PBM intensity, better of two orientations.

B11: CACACA_site5129 (dsDNA)
DNA 1: TATAAATACATACGTACACACAAATATTAAAATATA
DNA 2: TATATTTTAATATTTGTGTGTACGTATGTATTTATA
For B11, the binding signal is 9.91 ln median PBM intensity, better of two orientations.

B12: CACACA_site3596 (dsDNA)
DNA 1: AAATTCAAACAAATTACACACATTTTTTTTTAATTT
DNA 2: AAATTAAAAAAAAATGTGTGTAATTTGTTTGAATTT
B12: the binding signal was 9.94 ln median PBM intensity, better of two orientations.

B13: CACACA_site8007 (dsDNA)
DNA 1: TTTATTTTATCATTTGCACACGCACCCCCACATAAA
DNA 2: TTTATGTGGGGGTGCGTGTGCAAATGATAAAATAAA
For the molecule B13, the binding signal is 10 ln median PBM intensity, better of two orientations.

B14: CACACA_site3027 (dsDNA)
DNA 1: AAGTTTATTTGTTGCACACATATAAGTAGAGAAAAT
DNA 2: ATTTTCTCTACTTATATGTGTGCAACAAATAAACTT
Turning to B14, the binding signal is 9.88 ln median PBM intensity, better of two orientations.

B15: CACACA_site6743 (dsDNA)
DNA 1: AAGAAGCATAAATGTACACACATATTTATATATCAA
DNA 2: TTGATATATAAATATGTGTGTACATTTATGCTTCTT
On to B15, for which the binding signal was 10.1 ln median PBM intensity, better of two orientations.

B16: CACACA_site9316 (dsDNA)
DNA 1: CTTTTTAATAAATATACACACACAAAAAAAAAAAAA
DNA 2: TTTTTTTTTTTTTGTGTGTGTATATTTATTAAAAAG
Consider B16, for which the binding signal was 10.1 ln median PBM intensity, better of two orientations.

B17: CACACA_site6369 (dsDNA)
DNA 1: ATAAATAAGATATATACACACATATCTATACATATT
DNA 2: AATATGTATAGATATGTGTGTATATATCTTATTTAT
Take B17: the binding signal was 9.9 ln median PBM intensity, better of two orientations.

B18: CACACA_site884 (dsDNA)
DNA 1: ATGTGGAAATAGAGCACACATATATATAATATATAT
DNA 2: ATATATATTATATATATGTGTGCTCTATTTCCACAT
B18: the binding signal is 9.92 ln median PBM intensity, better of two orientations.

B19: CACACA_site762 (dsDNA)
DNA 1: ATTTTTTTATTTTGTGCACACACATAAAAATATATA
DNA 2: TATATATTTTTATGTGTGTGCACAAAATAAAAAAAT
Consider B19, for which the binding signal was 9.86 ln median PBM intensity, better of two orientations.

B20: CACACA_negctrl_site1727 (dsDNA)
DNA 1: TAACCACAAAAATAAAATCAAAAAAAAAAAAAAAAA
DNA 2: TTTTTTTTTTTTTTTTTGATTTTATTTTTGTGGTTA
With B20, the binding signal was 8.75 ln median PBM intensity, better of two orientations.

B21: CACACA_site1808 (dsDNA)
DNA 1: ATAAATATTAAAAGTACACACAGATACACTAATTAT
DNA 2: ATAATTAGTGTATCTGTGTGTACTTTTAATATTTAT
With B21, the binding signal was 10 ln median PBM intensity, better of two orientations.

B22: CACACA_site2466 (dsDNA)
DNA 1: TACCTAATATGTTATACACACATTATGAGTACATAT
DNA 2: ATATGTACTCATAATGTGTGTATAACATATTAGGTA
With B22, the binding signal is 9.88 ln median PBM intensity, better of two orientations.

B23: CACACA_site7206 (dsDNA)
DNA 1: B22 DNA 1 with G27A
DNA 2: B22 DNA 2 with C10T
Turning to B23, the binding signal was 9.98 ln median PBM intensity, better of two orientations.

B24: CACACA_site8492 (dsDNA)
DNA 1: AAAAAAAAAAAAAAAACACACACAAATTTAATATAT
DNA 2: ATATATTAAATTTGTGTGTGTTTTTTTTTTTTTTTT
For B24, the binding signal was 10.1 ln median PBM intensity, better of two orientations.

B25: CACACA_site8531 (dsDNA)
DNA 1: ATTTATAATTTTTGAGCACACACAAGCATATATATA
DNA 2: TATATATATGCTTGTGTGTGCTCAAAAATTATAAAT
For the molecule B25, the binding signal is 9.85 ln median PBM intensity, better of two orientations.

B26: CACACA_negctrl_site1343 (dsDNA)
DNA 1: TTTTAAAAAAAAAAAAAAAAAAAAAAAAAAAAAAAA
DNA 2: TTTTTTTTTTTTTTTTTTTTTTTTTTTTTTTTAAAA
On to B26, for which the binding signal was 8.78 ln median PBM intensity, better of two orientations.

B27: CACACA_site315 (dsDNA)
DNA 1: ACCAATAATATACATACACACATAAAGGTTTATATA
DNA 2: TATATAAACCTTTATGTGTGTATGTATATTATTGGT
As to B27, the binding signal was 9.89 ln median PBM intensity, better of two orientations.

B28: CACACA_site2473 (dsDNA)
DNA 1: GTTATTGTAAAAAGATTACACACGTTCTATATACTT
DNA 2: AAGTATATAGAACGTGTGTAATCTTTTTACAATAAC
In the case of B28, the binding signal is 9.97 ln median PBM intensity, better of two orientations.

B29: CACACA_site7113 (dsDNA)
DNA 1: TACGTTCTGATATATACACACCTGGTATTAATTATG
DNA 2: CATAATTAATACCAGGTGTGTATATATCAGAACGTA
As to B29, the binding signal was 10 ln median PBM intensity, better of two orientations.

B30: CACACA_site7599 (dsDNA)
DNA 1: AGCATTTTAAGTTATACACACATTTTGAATCTATAT
DNA 2: ATATAGATTCAAAATGTGTGTATAACTTAAAATGCT
Turning to B30, the binding signal was 9.87 ln median PBM intensity, better of two orientations.

B31: CACACA_negctrl_site1524 (dsDNA)
DNA 1: TTTTTTTTTTTTTTTTTTTTACCCCTTTTTCAAAAA
DNA 2: TTTTTGAAAAAGGGGTAAAAAAAAAAAAAAAAAAAA
In the case of B31, the binding signal was 8.65 ln median PBM intensity, better of two orientations.

B32: CACACA_site3408 (dsDNA)
DNA 1: GATCTATACATGGGGACACACATCACTCTATATTTT
DNA 2: AAAATATAGAGTGATGTGTGTCCCCATGTATAGATC
On to B32, for which the binding signal is 10.1 ln median PBM intensity, better of two orientations.

B33: CACACA_negctrl_site807 (dsDNA)
DNA 1: TTTTTTTTTTTTTTTTTTAAACACCTCAAAAAAAAA
DNA 2: TTTTTTTTTGAGGTGTTTAAAAAAAAAAAAAAAAAA
Turning to B33, the binding signal is 8.83 ln median PBM intensity, better of two orientations.

B34: CACACA_site1955 (dsDNA)
DNA 1: AATGAATGTAAGAAAATACACACTAGTATAGTAACA
DNA 2: TGTTACTATACTAGTGTGTATTTTCTTACATTCATT
Turning to B34, the binding signal was 9.93 ln median PBM intensity, better of two orientations.

B35: CACACA_site8037 (dsDNA)
DNA 1: TAAAAGAAATAAGGTGCACACATATACATATATATA
DNA 2: TATATATATGTATATGTGTGCACCTTATTTCTTTTA
Regarding B35, the binding signal is 9.97 ln median PBM intensity, better of two orientations.

B36: CACACA_negctrl_site1670 (dsDNA)
DNA 1: TTTATTTAAAAAATAAAAAAAAAAAAAAAAAAAAAA
DNA 2: TTTTTTTTTTTTTTTTTTTTTTATTTTTTAAATAAA
Consider B36, for which the binding signal is 8.32 ln median PBM intensity, better of two orientations.

B37: CACACA_negctrl_site273 (dsDNA)
DNA 1: TTTTTTTTTTTTTTTTTTTTTTGTGAAACTAAGTAA
DNA 2: TTACTTAGTTTCACAAAAAAAAAAAAAAAAAAAAAA
Take B37: the binding signal is 8.92 ln median PBM intensity, better of two orientations.

B38: CACACA_site382 (dsDNA)
DNA 1: GATATATATATTCACACACACATGGAAATATATATA
DNA 2: TATATATATTTCCATGTGTGTGTGAATATATATATC
As to B38, the binding signal is 10.1 ln median PBM intensity, better of two orientations.

B39: CACACA_negctrl_site585 (dsDNA)
DNA 1: TTTTTTTCTTGTTTTAAATAATATACTGGAAAAAAA
DNA 2: TTTTTTTCCAGTATATTATTTAAAACAAGAAAAAAA
For B39, the binding signal was 8.87 ln median PBM intensity, better of two orientations.

B40: CACACA_site2909 (dsDNA)
DNA 1: TTCTTTTTCCAATTTGCACACCACAAAATTATATAT
DNA 2: ATATATAATTTTGTGGTGTGCAAATTGGAAAAAGAA
B40: the binding signal was 10 ln median PBM intensity, better of two orientations.

B41: CACACA_site806 (dsDNA)
DNA 1: ATTTAAATAAGATATACACACAAGTAGAAGACTATG
DNA 2: CATAGTCTTCTACTTGTGTGTATATCTTATTTAAAT
With B41, the binding signal is 9.85 ln median PBM intensity, better of two orientations.
